B1: Notch1 RAMANK (domain or fragment, human, UniProt P46531 1758-2127, looked up)
chain: RKRRRQHGQLWFPEGFKVSEASKKKRREPLGEDSVGLKPLKNASDGALMDDNQNEWGDEDLETKKFRFEEPVVLPDLDDQTDHRQWTQQHLDAADLRMSAMAPTPPQGEVDADCMDVNVRGPDGFTPLMIASCSGGGLETGNSEEEEDAPAVISDFIYQGASLHNQTDRTGETALHLAARYSRSDAAKRLLEASADANIQDNMGRTPLHAAVSADAQGVFQILIRNRATDLDARMHDGTTPLILAARLAVEGMLEDLINSHADVNAVDDLGKSALHWAAAVNNVDAAVVLLKNGANKDMQNNREETPLFLAAREGSYETAKVLLDHFANRDITDHMDRLPRDIAQERMHHDIVRLLDEYNLVRSPQLHGA
B2: Notch2 RAMANK (domain or fragment, human, UniProt Q04721 1699-2076, looked up)
chain: MAKRKRKHGSLWLPEGFTLRRDASNHKRREPVGQDAVGLKNLSVQVSEANLIGTGTSEHWVDDEGPQPKKVKAEDEALLSEEDDPIDRRPWTQQHLEAADIRRTPSLALTPPQAEQEVDVLDVNVRGPDGCTPLMLASLRGGSSDLSDEDEDAEDSSANIITDLVYQGASLQAQTDRTGEMALHLAARYSRADAAKRLLDAGADANAQDNMGRCPLHAAVAADAQGVFQILIRNRVTDLDARMNDGTTPLILAARLAVEGMVAELINCQADVNAVDDHGKSALHWAAAVNNVEATLLLLKNGANRDMQDNKEETPLFLAAREGSYEAAKILLDHFANRDITDHMDRLPRDVARDRMHHDIVRLLDEYNVTPSPPGTVL
B3: Notch3 RAMANK (domain or fragment, human, UniProt Q9UM47 1663-2038, looked up)
chain: MVARRKREHSTLWFPEGFSLHKDVASGHKGRREPVGQDALGMKNMAKGESLMGEVATDWMDTECPEAKRLKVEEPGMGAEEAVDCRQWTQHHLVAADIRVAPAMALTPPQGDADADGMDVNVRGPDGFTPLMLASFCGGALEPMPTEEDEADDTSASIISDLICQGAQLGARTDRTGETALHLAARYARADAAKRLLDAGADTNAQDHSGRTPLHTAVTADAQGVFQILIRNRSTDLDARMADGSTALILAARLAVEGMVEELIASHADVNAVDELGKSALHWAAAVNNVEATLALLKNGANKDMQDSKEETPLFLAAREGSYEAAKLLLDHFANREITDHLDRLPRDVAQERLHQDIVRLLDQPSGPRSPPGPHG
B4: Notch4 RAMANK (domain or fragment, human, UniProt Q99466 1472-1833, looked up)
chain: RRRRREHGALWLPPGFTRRPRTQSAPHRRRPPLGEDSIGLKALKPKAEVDEDGVVMCSGPEEGEEVGQAEETGPPSTCQLWSLSGGCGALPQAAMLTPPQESEMEAPDLDTRGPDGVTPLMSAVCCGEVQSGTFQGAWLGCPEPWEPLLDGGACPQAHTVGTGETPLHLAARFSRPTAARRLLEAGANPNQPDRAGRTPLHAAVAADAREVCQLLLRSRQTAVDARTEDGTTPLMLAARLAVEDLVEELIAAQADVGARDKWGKTALHWAAAVNNARAARSLLQAGADKDAQDNREQTPLFLAAREGAVEVAQLLLGLGAARELRDQAGLAPADVAHQRNHWDLLTLLEGAGPPEARHKATP

Each binder was assayed against Human CSL spanning residues 25-449 (human, UniProt Q06330 25-449) (assay: ITC).
Chain of Human CSL spanning residues 25-449 (Q06330 25-449): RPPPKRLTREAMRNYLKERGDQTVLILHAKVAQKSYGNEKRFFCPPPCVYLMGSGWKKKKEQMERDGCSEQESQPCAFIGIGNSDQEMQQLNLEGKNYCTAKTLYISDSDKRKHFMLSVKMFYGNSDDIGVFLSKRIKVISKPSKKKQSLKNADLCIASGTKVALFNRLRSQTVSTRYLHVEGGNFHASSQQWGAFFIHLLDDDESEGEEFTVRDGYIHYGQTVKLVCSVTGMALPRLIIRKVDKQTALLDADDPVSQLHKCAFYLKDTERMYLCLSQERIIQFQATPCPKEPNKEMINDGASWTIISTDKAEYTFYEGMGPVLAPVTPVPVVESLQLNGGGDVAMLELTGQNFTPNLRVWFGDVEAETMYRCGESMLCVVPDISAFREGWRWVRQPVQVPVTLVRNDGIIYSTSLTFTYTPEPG

Kd, ≤ 100 nM:
B1, B2, B3, B4

Reference: publication doi:10.1101/2023.09.15.557970 (bioRxiv, 2023)
